We go through six molecules from patent US20220324988A1 (NANKAI UNIVERSITY, published 2022).

For assay [1], the target named is T1, human CD40 recombinant protein (Acrobiosystems, CD 0-H5228) (human, UniProt P25942 21-193).
T1 construct: Bought protein
Put plainly: SPR (Biacore T200), antibody captured on Protein A chip, CD40 as analyte. The protocol:
The antigen to be tested, i.e. human CD40 recombinant protein (Acrobiosystems, CD 0-H5228) was diluted gradiently with a Running buffer (HBS-EP+, GE) at concentrations of 2 μM, 1 μM, 500 nM, 250 nM, 125 nM, 62.5 nM, 31.25 nM. The above-mentioned CD40 with different concentrations was flowed through the chip on which the antibody was captured at a flow rate of 30 μL/min for 120 s of binding, and then the Running buffer was flowed through the chip at a flow rate of 30 μL/min for 240 s, with the antigen dissociating gradually from the chip on which the antibody was captured. Data processing was performed using BIAevaluation software S200, the necessary software of Biacore T200 instrument and binding constants (Ka), dissociation constants (Kd), and equilibrium dissociation constants (KD) were calculated.

Assay [2] addresses T2, human CD40 expressed on cells (human, UniProt P25942 21-277). Briefly: cell-based or functional assay.
The target of assay [3] is T1, human CD40 recombinant protein …. Put plainly: direct ELISA, coated human CD40 1 µg/ml, anti-human Fc-HRP. The protocol:
The antibodies were incubated at room temperature for 30 min, and washed 8 times with 0.05% PBS-Tween.

Assay [4] deals with T3, human OX40 (Acrobiosystems, OX 0-H5224) (human, UniProt P43489 29-216).
T3 construct: Bought protein
T3 sequence (looked up): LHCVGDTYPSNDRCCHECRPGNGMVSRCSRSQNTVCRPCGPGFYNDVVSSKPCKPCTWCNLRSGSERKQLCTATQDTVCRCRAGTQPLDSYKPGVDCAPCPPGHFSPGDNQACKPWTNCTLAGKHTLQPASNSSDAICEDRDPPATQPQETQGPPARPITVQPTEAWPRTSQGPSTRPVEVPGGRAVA
Briefly: direct ELISA, coated human OX40 1 µg/ml, anti-human Fc-HRP. How it is done:
(§1) PBS solutions containing 1 μg/ml of human OX40 (Acrobiosystems, OX 0-H5224), 4-1BB (Acrobiosystems, 41B-H5227), GITR (Acrobiosystems, GIR-H5228) and CD40 (Acrobiosystems, CD 0-H5228) were coated on the ELISA plates and incubated overnight at 4° C. […] After 30 mins of incubation at room temperature, washing was carried out for 8 times with 0.05% PBS-Tween.

Assay [5] deals with T2, human CD40 expressed on cells. Briefly: flow cytometry on 293FT cells expressing human CD40. How it is done: (§2) Cells expressing Rhesus monkey CD40 and human CD40, respectively, were obtained after 48 h of expression.
(§3) GraphPad Prism 6.0 was used to fit the curves and calculate EC50.

The target of assay [6] is T4, Rhesus monkey CD40 expressed on 293FT cells (Rhesus monkey (Macaca mulatta), UniProt F6SNI1 21-278).
T4 construct: whole, on cells; also called Rhesus CD40
Briefly: flow cytometry on 293FT cells expressing Rhesus CD40. How it is done:
as §2, §3

For assay [7], the target named is T5, human 4-1BB (Acrobiosystems, 41B-H5227) (human, UniProt Q07011 24-186).
T5 construct: Bought protein
T5 sequence (Q07011 24-186): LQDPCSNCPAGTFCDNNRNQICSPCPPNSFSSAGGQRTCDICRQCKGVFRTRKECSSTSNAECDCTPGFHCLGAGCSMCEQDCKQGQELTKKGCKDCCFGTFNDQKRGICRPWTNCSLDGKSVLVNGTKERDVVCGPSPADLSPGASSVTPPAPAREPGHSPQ
Briefly: direct ELISA, coated human 4-1BB 1 µg/ml, anti-human Fc-HRP. How it is done: as §1

Positions count from the first letter of the chain named.

T2 sequence (P25942 21-277): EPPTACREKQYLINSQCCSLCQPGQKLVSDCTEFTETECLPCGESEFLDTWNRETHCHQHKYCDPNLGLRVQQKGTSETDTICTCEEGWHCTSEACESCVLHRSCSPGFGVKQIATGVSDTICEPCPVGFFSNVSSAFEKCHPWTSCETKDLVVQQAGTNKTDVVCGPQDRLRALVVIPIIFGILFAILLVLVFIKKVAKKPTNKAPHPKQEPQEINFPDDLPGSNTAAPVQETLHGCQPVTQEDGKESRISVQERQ
T1 sequence (P25942 21-193 limits assumed): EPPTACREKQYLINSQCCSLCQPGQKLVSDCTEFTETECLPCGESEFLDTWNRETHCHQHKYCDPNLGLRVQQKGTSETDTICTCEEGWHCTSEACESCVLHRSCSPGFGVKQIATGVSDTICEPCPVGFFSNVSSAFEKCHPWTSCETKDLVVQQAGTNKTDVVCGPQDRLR

B1: NK004 (antibody, human IgG1, kappa, V domains shown)
VH: QVQLVESGGGLVQPGRSLRISCAGSGFTFGDSAMHWVRQAPGKGLEWVSGISRNSDTIVYADSVKGRFTISRDNAKNSLYLQMNSLRAEDTALYYCARRSGDHHAMDVWGPGTTVTVSS
VL: ETTLTQSPATLSLSPGERATLSCRASQSVNTYLAWYQQKPGQAPRLLMYDSSSRATGIPDRFSGSGSGTDFTLTISRLEPEDFAVYYCQQYSTVPLTFGGGTKLEIKR
notes: also called antibody NK004
B1: in assay [1], the Kd turned out to be 440 nM, the koff turned out to be 0.039 s⁻¹ and the kon worked out at 88700 M⁻¹ s⁻¹. Besides, the “EC50 of activation of the NF-κB-GFP+hCD40 reporter cell line, with the addition of the secondary antibody” value in assay [2] is 4 nM. Also, the “EC50 (read off the curve)” value in assay [3] was approximately 0.7 nM.

B2: NK003-AM-18 (antibody, human IgG1, kappa, V domains shown)
VH: not shown
VL: DVVMTQSPLSLPVTPGESATISCRSSQSLLYSNGYNYLDWYLLKPGQSPQLLIYLGSNRASGVPDRFSGSGSGTDFTLKISRVEAEDVGLYYCMQQLEQPYTFGQGTKLEIKR
Turning to B2, in assay [2], the “EC50 of activation of the NF-kB-GFP+hCD40 reporter cell line, cross-linked with goat anti-human Fc” value was found to be 0.3 nM and the “fold improvement of reporter cell activity against wild type NK003” value was approximately 10 times.

B3: NK003-AM-18-EP1 (antibody, human IgG1, kappa, V domains shown)
VH: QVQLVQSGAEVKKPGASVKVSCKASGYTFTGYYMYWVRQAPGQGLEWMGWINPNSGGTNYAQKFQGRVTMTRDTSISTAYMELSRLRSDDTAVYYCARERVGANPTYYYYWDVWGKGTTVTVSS
VL: B2 VL
In the case of B3, the “EC50 of activation of the NF-κB-GFP+hCD40 reporter cell line, cross-linked with goat anti-human Fc” value in assay [2] was 0.35 nM.

B4: NK003 (antibody, human IgG1, kappa, V domains shown)
VH: not shown
VL: B2 VL with Q96G, Q99T
notes: also called antibody NK003; wild type NK003
Consider B4, for which, in assay [1], the Kd was found to be 331 nM, the koff came out at 0.0121 s⁻¹ and the kon was determined as 36700 M⁻¹ s⁻¹. Further, in assay [2], the “EC50 of activation of the NF-κB-GFP+hCD40 reporter cell line, cross-linked with goat anti-human Fc” value came out at 2 nM; the “EC50 of apoptosis of Raji cells (CD95 expression, MFI), cross-linked with goat anti-human Fc” value turned out to be 2.6 nM; the “EC50 of apoptosis of Ramos cells (CD95 expression, MFI), cross-linked with goat anti-human Fc” value amounted to 3 nM. Besides, in assay [4], the binding result is on record as “no binding”. In addition, in assay [5], the midpoint of the response, the EC50, lay at 10 nM. Further, in assay [6], the response was half-maximal at 8 nM (EC50). Also, the binding result in assay [7] was “no binding”.

B5: NK003-AM-9 (antibody, human IgG1, kappa, V domains shown)
VH: not shown
VL: B2 VL with Q95N, Q96G, Q99V
For B5, in assay [2], the “EC50 of activation of the NF-kB-GFP+hCD40 reporter cell line, cross-linked with goat anti-human Fc” value is 0.25 nM and the “fold improvement of reporter cell activity against wild type NK003” value is approximately 10 times.

B6: HEL (antibody, human IgG1, kappa, V domains shown)
VH: EVQLEQSGAELMKPGASVKISCKATGYTFTTYWIEWIKQRPGHSLEWIGEILPGSDSTYYNEKVKGKVTFTADASSNTAYMQLSSLTSEDSAVYYCARGDGFYVYWGQGTTLTVSS
VL: DIELTQSPATLSVTPGDSVSLSCRASQSISNNLHWYQQKSHESPRLLIKYTSQSMSGIPSRFSGSGSGTDFTLSINSVETEDFGVYFCQQSGSWPRTFGGGTKLDIKR
notes: IgG1 negative control antibody; also called negative control HEL; HEL control antibody
On to B6, for which, in assay [3], the binding result was “no binding (tested: 500 nM)”.
